Experimental data taken from patent US20180305431A1 (Novo Nordisk, published 2018).

Tests used:
[1] = molecular target: T1, solubilised human IR-A (semipurified by wheat germ agglutinin chromatography from baby hamster kidney (BHK) … (human, UniProt P06213-2 28-1370)); experiment: SPA competition vs [125I-A14Y]-human insulin, solubilised hIR-A, 1.5% HSA
T1 construct: mature; Detergent-solubilised holoreceptor captured by anti-IR mouse antibody 83-7 on SPA beads; the precursor is processed into alpha and beta chains; also called hIRA; human insulin receptor (IR), A isoform

[2] = molecular target: membrane-associated human IR-B (plasma membranes of BHK cells stably transfected with the human IR-B insert) (human) (UniProt P06213); experiment: SPA competition vs [125I-A14Y]-human insulin, membrane hIR-B, 0.1% HSA
[3] = molecular target: T1, solubilised human IR-A (semipurified by …); experiment: SPA competition vs [125I-A14Y]-human insulin, solubilised hIR-A, 0% HSA
[4] = molecular target: T2, membrane-associated human IGF-1R (plasma membranes of BHK cells stably transfected with the human IGF-IR … (human, UniProt P08069 31-1367)); experiment: SPA competition vs [125I-Tyr31]-human IGF-1, membrane hIGF-1R, 0.1% HSA
T2 construct: whole, on cells; Receptor in purified plasma membranes, not on intact cells; also called hIGF1R; insulin-like growth factor 1 receptor
Experimental: The relative binding affinity for either of the membrane-associated human IR-A, IR-B or IGF-1R is determined by competition binding in a SPA setup. IR assays are performed in duplicate in 96-well OptiPlates (Perkin-Elmer Life Sciences). […] Assays are terminated by centrifugation of the plate at 2000 rpm for 2 minutes and bound radioactivity quantified by counting on a TopCount NXT (Perkin-Elmer Life Sciences).
IGF-1R assays are conducted essentially as for the IR binding assays except that membrane-associated IGF-1R and 50 pM [¹²5-Tyr31]-human IGF-1 were employed.

[5] = molecular target: membrane-associated human IR-A (plasma membranes of BHK cells stably transfected with the human IR-A insert) (human) (UniProt P06213); experiment: SPA competition vs [125I-A14Y]-human insulin, membrane hIR-A, 0.1% HSA
[6] = molecular target: insulin receptor on primary rat adipocytes (rat) (UniProt P15127); experiment: cell-based or functional assay
Chain of insulin receptor on primary rat adipocytes (rat) (P15127 27-1383): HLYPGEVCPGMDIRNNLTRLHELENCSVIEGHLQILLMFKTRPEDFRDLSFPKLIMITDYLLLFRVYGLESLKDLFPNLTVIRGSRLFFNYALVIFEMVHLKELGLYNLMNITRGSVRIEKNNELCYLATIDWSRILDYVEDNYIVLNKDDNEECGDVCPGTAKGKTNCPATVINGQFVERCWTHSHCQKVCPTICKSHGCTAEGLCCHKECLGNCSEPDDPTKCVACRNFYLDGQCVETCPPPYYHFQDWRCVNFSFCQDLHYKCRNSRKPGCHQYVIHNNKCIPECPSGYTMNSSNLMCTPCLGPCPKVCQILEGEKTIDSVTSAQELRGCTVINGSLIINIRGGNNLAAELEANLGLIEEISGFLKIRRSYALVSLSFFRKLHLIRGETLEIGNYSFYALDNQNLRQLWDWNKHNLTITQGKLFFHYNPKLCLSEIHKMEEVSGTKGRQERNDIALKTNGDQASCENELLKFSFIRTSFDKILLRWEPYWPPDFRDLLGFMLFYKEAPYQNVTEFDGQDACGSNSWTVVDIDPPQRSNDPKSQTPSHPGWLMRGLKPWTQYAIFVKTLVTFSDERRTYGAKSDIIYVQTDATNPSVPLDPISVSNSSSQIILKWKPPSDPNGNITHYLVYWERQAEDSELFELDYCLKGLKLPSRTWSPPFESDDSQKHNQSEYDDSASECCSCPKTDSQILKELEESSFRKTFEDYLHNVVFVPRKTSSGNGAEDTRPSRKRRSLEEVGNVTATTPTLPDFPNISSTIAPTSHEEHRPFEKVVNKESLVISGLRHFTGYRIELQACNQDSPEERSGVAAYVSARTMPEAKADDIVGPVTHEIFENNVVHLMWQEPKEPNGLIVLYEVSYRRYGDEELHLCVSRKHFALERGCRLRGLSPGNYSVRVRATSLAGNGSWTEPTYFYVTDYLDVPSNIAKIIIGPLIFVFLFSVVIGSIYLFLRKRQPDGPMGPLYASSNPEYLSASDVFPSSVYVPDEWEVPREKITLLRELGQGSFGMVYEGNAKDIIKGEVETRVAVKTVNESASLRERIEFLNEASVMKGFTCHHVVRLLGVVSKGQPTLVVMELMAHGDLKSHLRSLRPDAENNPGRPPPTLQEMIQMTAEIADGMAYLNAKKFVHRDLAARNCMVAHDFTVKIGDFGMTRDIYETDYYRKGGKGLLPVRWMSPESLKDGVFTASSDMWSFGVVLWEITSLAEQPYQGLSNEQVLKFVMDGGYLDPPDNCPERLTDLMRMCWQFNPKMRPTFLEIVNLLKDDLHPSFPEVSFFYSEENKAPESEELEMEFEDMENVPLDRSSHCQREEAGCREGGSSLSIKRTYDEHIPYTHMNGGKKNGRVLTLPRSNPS

Chain of membrane-associated human IR-B (plasma membranes of BHK cells stably transfected with the human IR-B insert) (human) (P06213 28-1382): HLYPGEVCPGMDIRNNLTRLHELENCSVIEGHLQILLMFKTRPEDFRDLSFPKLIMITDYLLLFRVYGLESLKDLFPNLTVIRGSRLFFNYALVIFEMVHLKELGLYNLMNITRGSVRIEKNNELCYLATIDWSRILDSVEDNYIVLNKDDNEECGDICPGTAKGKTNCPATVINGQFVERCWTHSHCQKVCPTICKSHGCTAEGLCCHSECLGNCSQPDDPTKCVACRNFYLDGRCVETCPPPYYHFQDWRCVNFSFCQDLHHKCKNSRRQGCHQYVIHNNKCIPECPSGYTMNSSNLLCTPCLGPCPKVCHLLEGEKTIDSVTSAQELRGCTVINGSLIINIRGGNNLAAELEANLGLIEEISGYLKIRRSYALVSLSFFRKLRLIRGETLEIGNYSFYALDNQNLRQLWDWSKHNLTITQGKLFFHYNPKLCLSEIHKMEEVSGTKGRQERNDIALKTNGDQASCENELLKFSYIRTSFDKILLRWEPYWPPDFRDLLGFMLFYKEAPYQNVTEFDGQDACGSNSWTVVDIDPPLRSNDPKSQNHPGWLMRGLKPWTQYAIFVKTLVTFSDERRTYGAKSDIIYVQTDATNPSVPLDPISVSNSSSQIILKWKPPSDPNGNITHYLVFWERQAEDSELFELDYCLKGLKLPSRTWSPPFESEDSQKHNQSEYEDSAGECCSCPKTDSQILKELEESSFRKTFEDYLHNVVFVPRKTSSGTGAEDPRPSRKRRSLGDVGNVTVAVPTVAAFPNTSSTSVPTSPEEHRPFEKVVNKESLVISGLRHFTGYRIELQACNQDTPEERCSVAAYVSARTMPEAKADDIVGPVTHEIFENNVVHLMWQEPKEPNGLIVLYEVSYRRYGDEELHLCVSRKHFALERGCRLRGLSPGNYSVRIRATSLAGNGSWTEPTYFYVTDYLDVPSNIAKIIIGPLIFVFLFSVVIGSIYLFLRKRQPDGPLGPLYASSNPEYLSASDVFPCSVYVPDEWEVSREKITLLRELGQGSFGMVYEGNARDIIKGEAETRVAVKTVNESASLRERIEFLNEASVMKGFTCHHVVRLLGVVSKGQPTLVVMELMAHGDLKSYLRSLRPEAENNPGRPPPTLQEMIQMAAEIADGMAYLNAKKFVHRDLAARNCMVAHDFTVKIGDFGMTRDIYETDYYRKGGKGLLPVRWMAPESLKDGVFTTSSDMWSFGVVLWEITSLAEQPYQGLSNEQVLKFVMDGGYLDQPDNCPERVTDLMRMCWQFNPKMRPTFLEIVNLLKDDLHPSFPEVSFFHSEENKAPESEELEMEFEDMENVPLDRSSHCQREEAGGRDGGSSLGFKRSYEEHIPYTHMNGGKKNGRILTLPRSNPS
T2 sequence (P08069 31-1367): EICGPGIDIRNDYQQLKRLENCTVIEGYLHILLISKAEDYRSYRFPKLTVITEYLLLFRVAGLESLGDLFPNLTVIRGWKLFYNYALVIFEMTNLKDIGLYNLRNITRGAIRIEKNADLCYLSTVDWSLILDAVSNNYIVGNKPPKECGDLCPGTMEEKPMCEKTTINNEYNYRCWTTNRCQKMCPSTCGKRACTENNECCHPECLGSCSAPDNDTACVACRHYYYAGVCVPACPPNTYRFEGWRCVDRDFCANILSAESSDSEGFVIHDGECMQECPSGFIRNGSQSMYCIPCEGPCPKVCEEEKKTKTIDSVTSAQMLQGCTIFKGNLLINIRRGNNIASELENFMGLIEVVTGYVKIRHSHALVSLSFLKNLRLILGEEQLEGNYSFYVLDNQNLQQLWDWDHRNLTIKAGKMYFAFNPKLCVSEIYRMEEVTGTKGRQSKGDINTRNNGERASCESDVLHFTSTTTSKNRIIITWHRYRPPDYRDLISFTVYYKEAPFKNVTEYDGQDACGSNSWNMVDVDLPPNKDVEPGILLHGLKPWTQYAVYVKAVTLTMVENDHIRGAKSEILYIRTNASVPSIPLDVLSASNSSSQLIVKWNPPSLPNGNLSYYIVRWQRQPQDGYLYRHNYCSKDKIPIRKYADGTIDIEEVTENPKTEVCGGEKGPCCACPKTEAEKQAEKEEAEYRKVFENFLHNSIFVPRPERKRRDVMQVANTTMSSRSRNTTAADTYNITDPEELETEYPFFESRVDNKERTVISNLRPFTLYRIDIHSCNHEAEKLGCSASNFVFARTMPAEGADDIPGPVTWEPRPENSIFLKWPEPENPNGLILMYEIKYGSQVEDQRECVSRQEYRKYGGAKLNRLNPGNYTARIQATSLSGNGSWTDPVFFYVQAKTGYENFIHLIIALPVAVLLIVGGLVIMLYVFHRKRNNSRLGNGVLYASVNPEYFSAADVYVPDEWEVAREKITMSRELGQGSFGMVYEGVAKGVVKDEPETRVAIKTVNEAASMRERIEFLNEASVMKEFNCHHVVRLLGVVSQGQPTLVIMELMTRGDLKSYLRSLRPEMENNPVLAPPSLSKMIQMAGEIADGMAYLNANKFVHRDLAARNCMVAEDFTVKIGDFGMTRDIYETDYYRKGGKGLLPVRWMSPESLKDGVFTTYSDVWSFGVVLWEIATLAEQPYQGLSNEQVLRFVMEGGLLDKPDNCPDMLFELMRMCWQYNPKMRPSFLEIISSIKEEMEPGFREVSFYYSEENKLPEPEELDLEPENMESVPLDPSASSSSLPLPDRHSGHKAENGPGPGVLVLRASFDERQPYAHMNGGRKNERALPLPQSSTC

relative binding affinity (% rel to HI) [1]	relative binding affinity (% rel to HI) [2]	relative binding affinity (% rel to HI) [3]	relative binding affinity (% rel to HI) [4]	relative binding affinity (% rel to HI) [5]	Lipogenesis 1% HSA (% rel to HI) [6]	Binder
70.2 % rel to HI	68.7 % rel to HI	83 % rel to HI	29.5 % rel to HI	36.8 % rel to HI	30.1 % rel to HI	A14E, A22K(N(eps)tetradecanedioyl-4xgGlu), B3Q, B27E, B28E, B29R, desB30 human insulin (ligand, not fully specified; Lys A22 acylated on N(eps) with tetradecanedioyl-4xgGlu, also called Ex. No. 9) chain 1: GIVEQCCTSICSLEQLENYCNK chain 2: FVQQHLCGSHLVEALYLVCGERGFFYEER
38.9 % rel to HI	70.2 % rel to HI	60.4 % rel to HI	36.6 % rel to HI	50.1 % rel to HI	14.2 % rel to HI	A14E, A22K(N(eps)tetradecanedioyl-gGlu-2xOEG), B3E, B27E, B28E, B29R, desB30 human insulin (ligand, not fully specified; Lys A22 acylated on N(eps) with tetradecanedioyl-gGlu-2xOEG, Two-chain acylated insulin analogue; also called Ex. No. 2) chain 1: GIVEQCCTSICSLEQLENYCNK chain 2: FVEQHLCGSHLVEALYLVCGERGFFYEER
44.9 % rel to HI	56.6 % rel to HI	47.4 % rel to HI	28.6 % rel to HI	36.6 % rel to HI	15.4 % rel to HI	A14E, A22K(N(eps)tetradecanedioyl-4xgGlu), B3E, B27E, B28E, B29R, desB30 human insulin (ligand, not fully specified; Lys A22 acylated on N(eps) with tetradecanedioyl-4xgGlu, Two-chain acylated insulin analogue; also called Ex. No. 4) chain 1: GIVEQCCTSICSLEQLENYCNK chain 2: FVEQHLCGSHLVEALYLVCGERGFFYEER
64.9 % rel to HI	59.1 % rel to HI	95.6 % rel to HI	42 % rel to HI	34.3 % rel to HI	17.2 % rel to HI	A14E, A22K(N(eps)tetradecanedioyl-4xgGlu), B3Q, B28D, B29R, desB30 human insulin (ligand, not fully specified; Lys A22 acylated on N(eps) with tetradecanedioyl-4xgGlu, also called Ex. No. 8) chain 1: GIVEQCCTSICSLEQLENYCNK chain 2: FVQQHLCGSHLVEALYLVCGERGFFYTDR

More lines, now with the values behind:

Binder	relative binding affinity (% rel to HI) [1]	relative binding affinity (% rel to HI) [2]	relative binding affinity (% rel to HI) [3]	relative binding affinity (% rel to HI) [4]	relative binding affinity (% rel to HI) [5]	Lipogenesis 1% HSA (% rel to HI) [6]
A8R, A22K(N(eps)tetradecanedioyl-4xgGlu), B3E, B26E, B27E, B28R, desB29, desB30 human insulin (ligand, not fully specified; Lys A22 acylated on N(eps) with tetradecanedioyl-4xgGlu, Two-chain acylated insulin analogue; also called Ex. No. 19) chain 1: GIVEQCCRSICSLYQLENYCNK chain 2: FVEQHLCGSHLVEALYLVCGERGFFEER	188 % rel to HI	155 % rel to HI	260 % rel to HI	22.6 % rel to HI	88.8 % rel to HI	80.3 % rel to HI
A8R, A22K(N(eps)tetradecanedioyl-4xgGlu), B3E, B27E, B28R, desB29, desB30 human insulin (ligand, not fully specified; Lys A22 acylated on N(eps) with tetradecanedioyl-4xgGlu, Two-chain acylated insulin analogue; also called Ex. No. 17) chain 1: GIVEQCCRSICSLYQLENYCNK chain 2: FVEQHLCGSHLVEALYLVCGERGFFYER	163 % rel to HI	130 % rel to HI	243 % rel to HI	32.9 % rel to HI	85.2 % rel to HI	70.7 % rel to HI
A8R, A22K(N(eps)tetradecanedioyl-4xgGlu), B3E, B26E, B27P, B28R, desB29, desB30 human insulin (ligand, not fully specified; Lys A22 acylated on N(eps) with tetradecanedioyl-4xgGlu, also called Ex. No. 16) chain 1: GIVEQCCRSICSLYQLENYCNK chain 2: FVEQHLCGSHLVEALYLVCGERGFFEPR	229 % rel to HI	168 % rel to HI	317 % rel to HI	61.8 % rel to HI	113 % rel to HI	130 % rel to HI
A14E, A22K(N(eps)hexadecanedioyl-gGlu-2xOEG), B3E, B27E, B28E, B29R, desB30 human insulin (ligand, not fully specified; Lys A22 acylated on N(eps) with hexadecanedioyl-gGlu-2xOEG, Two-chain acylated insulin analogue; also called Ex. No. 26) chain 1: GIVEQCCTSICSLEQLENYCNK chain 2: FVEQHLCGSHLVEALYLVCGERGFFYEER	7.4 % rel to HI	28.7 % rel to HI	63.7 % rel to HI	28.7 % rel to HI	19.3 % rel to HI	2.6 % rel to HI
